The values that follow come from paper PMC11161652, “ASXLs binding to the PHD2/3 fingers of MLL4 provides a mechanism for the recruitment of BAP1 to active enhancers” (Nature Communications, 2024).

Assay [1] concerns the target T1, PHD2 and PHD3 fingers of human MLL4 (aa 227-324) (human, UniProt O14686 227-324).
T1 construct: PHD2 and PHD3 fingers of human MLL4 (KMT2D), aa 227-324; also called MLL4_(PHD2/3); MLL4 PHD2/3; source: E. coli BL21-CodonPlus, purified (glutathione agarose, PreScission cleavage; unlabeled proteins also SEC)
T1 sequence (looked up): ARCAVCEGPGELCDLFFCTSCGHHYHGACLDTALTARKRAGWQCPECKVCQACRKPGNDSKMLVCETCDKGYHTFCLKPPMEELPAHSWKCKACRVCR
The experiment in a line: not stated; fluorescence spectroscopy or NMR: the legends of Fig. 3c and Fig. 4b say that values marked (a) are from NMR and the others from fluorescence; the text does not tell which for these pairs. The conditions noted are these: both partners purified.

For assay [2], the target named is T2, PHD2 and PHD3 fingers of human MLL4 (aa 227-324) (human, UniProt O14686 227-324).
T2 chain: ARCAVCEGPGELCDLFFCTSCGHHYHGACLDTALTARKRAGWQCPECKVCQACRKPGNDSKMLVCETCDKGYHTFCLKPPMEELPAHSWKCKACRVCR

The target of assay [3] is T3, PHD2 and PHD3 fingers of human MLL3 (aa 342-439) (human, UniProt Q8NEZ4 342-439).
T3 chain: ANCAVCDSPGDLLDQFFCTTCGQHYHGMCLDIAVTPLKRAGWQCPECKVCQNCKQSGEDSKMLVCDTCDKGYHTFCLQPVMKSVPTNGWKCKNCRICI

Assay [4] concerns the target T4, PHD2 and PHD3 fingers of human MLL3 (aa 342-439) (human, UniProt Q8NEZ4 342-439).
T4 construct: PHD2 and PHD3 fingers of human MLL3 (KMT2C), aa 342-439; 15N-labelled for NMR titrations; also used unlabelled as the titrant against MLL3 PHD4; also called MLL3_(PHD2/3); MLL3 PHD2/3; source: E. coli BL21-CodonPlus, purified (glutathione agarose, PreScission cleavage; unlabeled proteins also SEC)
T4 sequence (looked up): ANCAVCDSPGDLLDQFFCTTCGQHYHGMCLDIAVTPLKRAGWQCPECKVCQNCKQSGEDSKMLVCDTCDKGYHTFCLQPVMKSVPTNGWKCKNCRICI
The experiment in a line: other fluorescence titration; tryptophan fluorescence, 25 °C; 1.0 µM MLL4 PHD2/3 or MLL3 PHD2/3 with increasing peptide; excitation 295 nm; 20 mM Tris pH 7.2, 150 mM NaCl, 1 mM TCEP, 0.02% Tween20; average of three measurements. Particulars: both partners purified.

B1: ASXL2 peptide (aa 650-670) R655I (peptide, UniProt Q76L83 650-670, looked up)
peptide: NRTGAITLADIKAKAQLVKAQ
notes: ASXL2, residues 650-670; R655I is said to be associated with large intestine cancer; also called R655I mutant of ASXL2; source: synthetic peptide (SynPeptide)
On to B1, for which the “fold reduction in binding against the wild type ASXL2 peptide” value in assay [1] is roughly 16 fold. Moreover, the equilibrium dissociation constant (Kd) worked out at 11 µM in assay [2] and 10.5 µM in assay [3]. Also, the binding result in assay [4] is given as “binds”.

By Kd is commonly meant the equilibrium constant for the complex coming apart. A high value points to lower affinity.
